These results are taken from article doi:10.1101/2021.10.29.464531.

For this test, the target named is tick-borne encephalitis virus capsid protein (tick-borne encephalitis virus, strain Kuutsalo-14). In words: cross-linking.

As usually defined, the stoichiometry N is a count of units in the complex or per binding partner. Regarding “tick-borne encephalitis virus capsid protein (natural protein)”, the stoichiometry N stood at 2.
